Experimental data from paper PMC7082078 (Cell reports, 2020).
Each block holds one molecule with its values, some of them ahead of it.

Assays:
Assay in all cases: AUC
[1] = target: Xenopus pcdh8.1 full ectodomain (EC1–EC6) (Xenopus)
[2] = target: Xenopus pcdh8.2 (PAPC) full ectodomain (EC1–EC6) (Xenopus)
[3] = target: human pcdh7 EC1–EC4 fragment (human)
[4] = target: human pcdh8 EC5–EC6 fragment (human)
[5] = target: human pcdh9 EC1–EC4 fragment (human)
[6] = target: human pcdh10 EC1–EC3 fragment (human)
[7] = target: human pcdh10 EC1–EC4 fragment (human)
[8] = target: human pcdh10 EC5–EC6 fragment (human)
[9] = target: human pcdh10 full ectodomain (EC1–EC6) (human)
[10] = target: human pcdh11Y full ectodomain (EC1–EC7) (human)
[11] = target: human pcdh12 full ectodomain fragment (EC1–EC6) (human)
[12] = target: human pcdh17 full ectodomain (EC1–EC6) (human)
[13] = target: human pcdh18 full ectodomain (EC1–EC6) (human)
[14] = target: mouse pcdh7 EC1–EC4 fragment (mouse)
[15] = target: mouse pcdh7 full ectodomain (EC1–EC7) (mouse)
[16] = target: the molecule itself

Molecule: Xenopus pcdh8.1 full ectodomain (EC1–EC6) (domain or fragment)
- Kd [1]: 3.5 µM
- stoichiometry N [1]: 2

Molecule: Xenopus pcdh8.2 (PAPC) full ectodomain (EC1–EC6) (domain or fragment)
- stoichiometry N [2]: 2

Molecule: human pcdh9 EC1–EC4 fragment (domain or fragment)
- Kd [5]: 2 µM
- stoichiometry N [5]: 2

Molecule: human pcdh10 EC1–EC3 fragment (domain or fragment)
- Kd [6]: 280 µM
- stoichiometry N [6]: 2

Molecule: human pcdh10 EC1–EC4 fragment (domain or fragment)
- Kd [7]: 0.68 µM
- stoichiometry N [7]: 2

Molecule: human pcdh10 full ectodomain (EC1–EC6) (domain or fragment)
- Kd [9]: 3.6 µM
- stoichiometry N [9]: 2

Molecule: mouse pcdh7 full ectodomain (EC1–EC7) (domain or fragment)
- Kd [15]: 8.2 µM
- stoichiometry N [15]: 2

B1: human pcdh9 full ectodomain (EC1–EC7) (domain or fragment)
chain: QELIYTIREELPENVPIGNIPKDLNISHINAATGTSASLVYRLVSKAGDAPLVKVSSSTGEIFTTSNRIDREKLCAGASYAEENECFFELEVVILPNDFFRLIKIKIIVKDTNDNAPMFPSPVINISIPENTLINSRFPIPSATDPDTGFNGVQHYELLNGQSVFGLDIVETPEGEKWPQLIVQQNLDREQKDTYVMKIKVEDGGTPQKSSTAILQVTVSDVNDNRPVFKEGQVEVHIPENAPVGTSVIQLHATDADIGSNAEIRYIFGAQVAPATKRLFALNNTTGLITVQRSLDREETAIHKVTVLASDGSSTPARATVTINVTDVNDNPPNIDLRYIISPINGTVYLSEKDPVNTKIALITVSDKDTDVNGKVICFIEREVPFHLKAVYDNQYLLETSSLLDYEGTKEFSFKIVASDSGKPSLNQTALVRVKLEDENDNPPIFNQPVIELSVSENNRRGLYLTTISATDEDSGKNADIVYQLGPNASFFDLDRKTGVLTASRVFDREEQERFIFTVTARDNGTPPLQSQAAVIVTVLDENDNSPKFTHNHFQFFVSENLPKYSTVGVITVTDADAGENKAVTLSILNDNDNFVLDPYSGVIKSNVSFDREQQSSYTFDVKATDGGQPPRSSTAKVTINVMDVNDNSPVVISPPSNTSFKLVPLSAIPGSVVAEVFAVDVDTGMNAELKYTIVSGNNKGLFRIDPVTGNITLEEKPAPTDVGLHRLVVNISDLGYPKSLHTLVLVFLYVNDTAGNASYIYDLIRRTMETPLDRNIGDSSQPYQNEDYLT
- Kd [16]: 2.03 µM
- stoichiometry N [16]: 2

B2: human pcdh19 full ectodomain (EC1–EC6) (domain or fragment)
chain: LINLKYSVEEEQRAGTVIANVAKDAREAGFALDPRQASAFRVVSNSAPHLVDINPSSGLLVTKQKIDRDLLCRQSPKCIISLEVMSSSMEICVIKVEIKDLNDNAPSFPAAQIELEISEAASPGTRIPLDSAYDPDSGSFGVQTYELTPNELFGLEIKTRGDGSRFAELVVEKSLDRETQSHYSFRITALDGGDPPRLGTVGLSIKVTDSNDNNPVFSESTYAVSVPENSPPNTPVIRLNASDPDEGTNGQVVYSFYGYVNDRTRELFQIDPHSGLVTVTGALDYEEGHVYELDVQAKDLGPNSIPAHCKVTVSVLDTNDNPPVINLLSVNSELVEVSESAPPGYVIALVRVSDRDSGLNGRVQCRLLGNVPFRLQEYESFSTILVDGRLDREQHDQYNLTIQARDGGVPMLQSAKSFTVLITDENDNHPHFSKPYYQVIVQENNTPGAYLLSVSARDPDLGLNGSVSYQIVPSQVRDMPVFTYVSINPNSGDIYALRSFNHEQTKAFEFKVLAKDGGLPSLQSNATVRVIILDVNDNTPVITAPPLINGTAEVYIPRNSGIGYLVTVVKAEDYDEGENGRVTYDMTEGDRGFFEIDQVNGEVRTTRTFGESSKSSYELIVVAHDHGKTSLSASALVLIYLSPALDAQESMGSVNLS
- Kd [16]: 0.48 µM
- stoichiometry N [16]: 2

B3: human pcdh1 EC1–EC4 fragment (domain or fragment)
chain: TRVVYKVPEEQPPNTLIGSLAADYGFPDVGHLYKLEVGAPYLRVDGKTGDIFTTETSIDREGLRECQNQLPGDPCILEFEVSITDLVQNGSPRLLEGQIEVQDINDNTPNFASPVITLAIPENTNIGSLFPIPLASDRDAGPNGVASYELQAGPEAQELFGLQVAEDQEEKQPQLIVMGNLDRERWDSYDLTIKVQDGGSPPRASSALLRVTVLDTNDNAPKFERPSYEAELSENSPIGHSVIQVKANDSDQGANAEIEYTFHQAPEVVRRLLRLDRNTGLITVQGPVDREDLSTLRFSVLAKDRGTNPKSARAQVVVTVKDMNDNAPTIEIRGIGLVTHQDGMANISEDVAEETAVALVQVSDRDEGENAAVTCVVAGDVPFQLRQASETGSDSKKKYFLQTTTPLDYEKVKDYTIEIVAVDSGNPPLSSTNSLKVQVVD
- Kd [16]: 0.53 µM
- stoichiometry N [16]: 2

B4: human pcdh1 full ectodomain (EC1–EC7) (domain or fragment)
chain: TRVVYKVPEEQPPNTLIGSLAADYGFPDVGHLYKLEVGAPYLRVDGKTGDIFTTETSIDREGLRECQNQLPGDPCILEFEVSITDLVQNGSPRLLEGQIEVQDINDNTPNFASPVITLAIPENTNIGSLFPIPLASDRDAGPNGVASYELQAGPEAQELFGLQVAEDQEEKQPQLIVMGNLDRERWDSYDLTIKVQDGGSPPRASSALLRVTVLDTNDNAPKFERPSYEAELSENSPIGHSVIQVKANDSDQGANAEIEYTFHQAPEVVRRLLRLDRNTGLITVQGPVDREDLSTLRFSVLAKDRGTNPKSARAQVVVTVKDMNDNAPTIEIRGIGLVTHQDGMANISEDVAEETAVALVQVSDRDEGENAAVTCVVAGDVPFQLRQASETGSDSKKKYFLQTTTPLDYEKVKDYTIEIVAVDSGNPPLSSTNSLKVQVVDVNDNAPVFTQSVTEVAFPENNKPGEVIAEITASDADSGSNAELVYSLEPEPAAKGLFTISPETGEIQVKTSLDREQRESYELKVVAADRGSPSLQGTATVLVNVLDCNDNDPKFMLSGYNFSVMENMPALSPVGMVTVIDGDKGENAQVQLSVEQDNGDFVIQNGTGTILSSLSFDREQQSTYTFQLKAVDGGVPPRSAYVGVTINVLDENDNAPYITAPSNTSHKLLTPQTRLGETVSQVAAEDFDSGVNAELIYSIAGGNPYGLFQIGSHSGAITLEKEIERRHHGLHRLVVKVSDRGKPPRYGTALVHLYVNETLANRTLLETLLGHSLDTPLDIDIAGDPEYERSKQRGN
- Kd [16]: 1.2 µM
- stoichiometry N [16]: 2

Further lines, results first:

- Kd [3]: 2.7 µM
- stoichiometry N [3]: 2
Molecule: human pcdh7 EC1–EC4 fragment (domain or fragment)

- Kd [4]: > 1000 µM
Molecule: human pcdh8 EC5–EC6 fragment (domain or fragment)

- Kd [8]: > 1000 µM
Molecule: human pcdh10 EC5–EC6 fragment (domain or fragment)

- Kd [10]: 7.8 µM
- stoichiometry N [10]: 2
Molecule: human pcdh11Y full ectodomain (EC1–EC7) (domain or fragment)

- stoichiometry N [11]: 2
Molecule: human pcdh12 full ectodomain fragment (EC1–EC6) (domain or fragment)

- Kd [12]: 4.8 µM
- stoichiometry N [12]: 2
Molecule: human pcdh17 full ectodomain (EC1–EC6) (domain or fragment)

- Kd [13]: 2.7 µM
- stoichiometry N [13]: 2
Molecule: human pcdh18 full ectodomain (EC1–EC6) (domain or fragment)

- Kd [14]: 4.1 µM
- stoichiometry N [14]: 2
Molecule: mouse pcdh7 EC1–EC4 fragment (domain or fragment)
